# Laboratory results as given in US7329737 (DYAX, dated 2008).
# Target: T1, hK1 (human tissue kallikrein 1), recombinant (human, UniProt P06870 25-262)
# T1 construct: Expressed in P. pastoris from KLK1 cDNA and purified; enzymatically active; also called KLK1; Recombinant (Pichia) Kallikrein
# Assay: SPR
Binder,Kd,koff,kon
"M0095-G09 (Fab, V domains shown) VH: EVQLLESGGGLVQPGGSLRLSCAASGFTFSNYNMHWVRQAPGKGLEWVSVIYPSGGYTVYADSVKGRFTISRDNSKNTLYLQMNSLRAEDTAVYYCARRGNWGGIDYWGQGTLVTVSS VL: DIQMTQSPSSLSASVGDRVTITCRASQSISNWLAWYQQKPGKAPKLLIYKASTLQTGVPSRFSGSGSGTEFSLTISSLQPDDFATYYCQQTYSAPFNFGPGTKVDIKR",18.6 nM,0.0934 s⁻¹,5.01e+06 M⁻¹ s⁻¹
"M0122-D01 (Fab, V domains shown) VH: EVQLLESGGGLVQPGGSLRLSCAASGFTFSHYIMHWVRQAPGKGLEWVSGIYPSGGSTKYADSVKGRFTISRDNSKNTLYLQMNSLRAEDTAVYYCARALVGALDYWGQGTLVTVSS VL: DIQMTQSPSSVSASVGDRVTITCRASQDIRTWLAWYQQKSGKAPKLLIYSSSSLQSGISSRFSGSGSGTDFTLTISNLQPEDSAIYYCQQATTFPWTFGQGTKVEIKR",20.8 nM,0.00427 s⁻¹,205000 M⁻¹ s⁻¹
"M0128-A06 (Fab, V domains shown) VH: EVQLLESGGGLVQPGGSLRLSCAASGFTFSHYKMNWVRQAPGKGLEWVSYIGSSGGKTGYADSVKGRFTISRDNSKNTLYLQMNSLRAEDTALYYCARVGVWYGMDVWGQGTLVTVSS VL: AQSALTQPPSLSVSAGQTATITCSPSGGGLRNKYVSWYQQRPGQSPFLVIYKDAERPSGIPERFSGSNFGNTATLTIGGTQAMDEADFYCLAWDSTTRVFGGGTKLTVLS",18.4 nM,0.00612 s⁻¹,332000 M⁻¹ s⁻¹
"M0093-G09 (Fab, V domains shown) VH: EVQLLESGGGLVQPGGSLRLSCAASGFTFSWYSMTWVRQAPGKGLEWVSSISPSGGATKYADSVKGRFTISRDNSKNTLYLQMNSLRAEDTAVYYCARGGAASLPFDYWGQGTLVTVSS VL: DIQMTQSPSSLSASVGDRVTITCRASQSISSFLNWYQQKPGKAPKLLLMYAASSLQSGVPSRFSGSGSGTDFTLTISSLQPEDFATYYCQQSYSTPYTFGQGTKLEIKR",23 nM,0.0105 s⁻¹,458000 M⁻¹ s⁻¹
"M0117-B07 (Fab, V domains shown) VH: EVQLLESGGGLVQPGGSLRLSCAASGFTFSHYTMWWVRQAPGKGLEWVSRIWPSGGTTRYADSVKGRFTISRDNSKNTLYLQMNSLRAEDTAVYYCARGGSYLAFDIWGQGTMVTVSS VL: DIQMTQSPATLSLSPGERATLSCRASQSVSSYLAWYQQKPGQAPRLLIYDASNRATGIPARFSGSGSGTDFTLTISSLEPEDFAVYYCQQRSNFGGGTKVEIKR",22.8 nM,0.00826 s⁻¹,362000 M⁻¹ s⁻¹
"M0137-G10 (Fab, V domains shown) VH: EVQLLESGGGLVQPGGSLRLSCAASGFTFSRYVMHWVRQAPGKGLEWVSYISPSGGVTKYADSVKGRFTISRDNSKNTLYLQMNSLRAEDTAVYYCAKALYPGMGYYYGMDVWGQGTTVTVSS VL: DIQMTQSPSSLSASVGDRVTITCRTSQTVSTFLNWYQQKPGTAPKLLIYAASRLQSGVPSRFSGSGSETDFTLTISRLQPEDFATYYCQQSFTSPRTFGLGTKVEIKR",18.8 nM,0.00513 s⁻¹,272000 M⁻¹ s⁻¹
"M0131-D12 (Fab, V domains shown) VH: EVQLLESGGGLVQPGGSLRLSCAASGFTFSWYNMYWVRQAPGKGLEWVSYIVPSGGATHYADSVKGRFTISRDNSKNTLYLQMNSLRAEDTAVYYCARALRGYSYGPRGYYYYGMDVWGQGTTVTVSS VL: AQSALTQPPSVSVAPGQTASISCSGNILDNSYASWFQQKPGQSPVMVIHRDNKRPSGIPERFSGSTSGNTATLTISGTQAVDEADYYCQAWDRTTGVFGTGTRLTVLR",18.4 nM,0.00193 s⁻¹,105000 M⁻¹ s⁻¹
"M0128-F11 (Fab, V domains shown) VH: EVQLLESGGGLVQPGGSLRLSCAASGFTFSFYVMGWVRQAPGKGLEWVSWIGPSGGRTWYADSVKGRFTISRDNSKNTLYLQMNSLRAEDTAVYYCARDRGWYGIDVWGQGTTVTVSS VL: DIQMTQSPSSLSASVGDRVTITCRASQYISTYLAWYQQKPGKAPKLLIYKASDLESGVPSRFSGSGSGTEFTLTINSLQPDDFATYYCQQYNTYWTFGHGTKVEIKR",18.3 nM,0.0143 s⁻¹,780000 M⁻¹ s⁻¹
"M0116-C09 (Fab, V domains shown) VH: EVQLLESGGGLVQPGGSLRLSCAASGFTFSNYKMHWVRQAPGKGLEWVSSIYPSGGWTVYADSVKGRFTISRDNSKNTLYLQMNSLRAEDTAVYYCATGYSSTWGAFDIWGQGTMVTVSS VL: AQSALTQPPSVSVSPGQTASITCFGDKLGDKYGSWYQQKPGQSPVLVLYQYWKRPSGIPERFSGSNSGNTATLTINVTQTMDEADYYCQAWDSNTVVFGGGTKLTVLG",18.2 nM,0.00947 s⁻¹,520000 M⁻¹ s⁻¹

# The next lines start with the values.
Kd,koff,kon,Binder
19.9 nM,2.44 s⁻¹,1.23e+08 M⁻¹ s⁻¹,"M0106-E12 (Fab, V domains shown) VH: EVQLLESGGGLVQPGGSLRLSCAASGFTFSHYNMTWVRQAPGKGLEWVSSIWPSGGATRYADSVKGRFTISRDNSKNTLYLQMNSLRAEDTAVYYCARTSRFYGMDVWGQGTTVTVSS VL: DIQMTQSPGTLSLSPGERATLSCRPSQSVYSNYLAWYQQKPGQAPRLLIYGASTRATGIPDRFSGSASGTDFTLTISRLEPEDFAVYYCQQYGNSYTFGPGTKVDIKR"
22.6 nM,0.0142 s⁻¹,628000 M⁻¹ s⁻¹,"M0106-C06 (Fab, V domains shown) VH: EVQLLESGGGLVQPGGSLRLSCAASGFTFSHYTMQWVRQAPGKGLEWVSSIYPSGGATKYADSVKGRFTISRDNSKNTLYLQMNSLRAEDTAMYYCARSGYYYGLDVWGQGTTVTVSS VL: DIQMTQSPATLSASVGDRVTITCRASQSVSRWLAWYQQKPGKAPKLLIYKASTLESGVPSRFSGSGSGTEFTLTISSLQPDDFATYYCQQYGAFGQGTKVEIRR"
20.3 nM,0.0012 s⁻¹,59100 M⁻¹ s⁻¹,"M0124-H10 (Fab, V domains shown) VH: EVQLLESGGGLVQPGGSLRLSCAASGFTFSNYFMNWVRQAPGKGLEWVSSIGSSGGYTRYADSVKGRFTISRDNSKNTLYLQMNSLRAEDTAVYYCARVGVWYGMDVWGQGTTVTVSS VL: DIQMTQSPATLSLSAGERATLSCRASQSVNIDVGWYQQKPGQAPRLLIYDASKRATGIPTRFSGSGSGTDFTLTIANLEPEDFAVYYCQQRARWLTFGGGTRLEIKR"
23 nM,0.415 s⁻¹,1.8e+07 M⁻¹ s⁻¹,"M0126-H09 (Fab, V domains shown) VH: EVQLLESGGGLVQPGGSLRLSCAASGFTFSNYTMMWVRQAPGKGLEWVSGIYPSGGQTAYADSVKGRFTISRDNSKNTLYLQMNSLRAEDTAVYYCARGGSWYAFDIWGQGTMVTVSS VL: AQSVLTQDPAVSVALGQTVRFTCQGDSLRNYHPSWYQQKPRQAPVLVMFGRNNRPSGIPDRFSGSTSGGTASLTITATQADDEADYFCSSRDGSGNFLFGGGTKLTVLG"
22.6 nM,0.00752 s⁻¹,333000 M⁻¹ s⁻¹,"M0093-C10 (Fab, V domains shown) VH: EVQLLESGGGLVQPGGSLRLSCAASGFTFSRYTMEWVRQAPGKGLEWVSVIRPSGGTTMYADSVKGRFTISRDNSKNTLYLQMNSLRAEDMAVYYCARVGVWYGMDVWGQGTTVTVSS VL: DIQITQSPSSLSASVGDRVTITCRASQGISNYLAWYQQKPGKVPKLLIYAASTLQSGVPSRFSGSGSGTDFTLTISSLQPEDFATYYCEQLNSFPHAFGQGTKVEIKR"
